Test results published in patent US20210206877.

Target: certain anti-BACE1 antibodies (tested in the FRET short substrate assay)

B1: BACE1 ECD (as used in the enzyme activity assay) (protein)
chain: TQHGIRLPLRSGLGGAPLGLRLPRETDEEPEEPGRRGSFVEMVDNLRGKSGQGYYVEMTVGSPPQTLNILVDTGSSNFAVGAAPHPFLHRYYQRQLSSTYRDLRKGVYVPYTQGKWEGELGTDLVSIPHGPNVTVRANIAAITESDKFFINGSNWEGILGLAYAEIARPDDSLEPFFDSLVKQTHVPNLFSLQLCGAGFPLNQSEVLASVGGSMIIGGIDHSLYTGSLWYTPIRREWYYEVIIVRVEINGQDLKMDCKEYNYDKSIVDSGTTNLRLPKKVFEAAVKSIKAASSTEKFPDGFWLGEQLVCWQAGTTPWNIFPVISLYLMGEVTNQSFRITILPQQYLRPVEDVATSQDDCYKFAISQSSTGTVMGAVIMEGFYVVFDRARKRIGFAVSACHVHDEFRTAAVEGPFVTLDMEDCGYNIPQTDESTLMT
B1 was tested, and the “Modulation of BACE1 activity (cleavage of FRET short substrate Mca-SEVNLDAEFRK(Dnp)RR-NH2)” value was “both enzyme inhibition (positive percentages), and enzyme activation (negative values) were observed”.
